Measured values reported in patent US20230235039A1.
Positions count from the first letter of the chain named. Values belong to the binder of their own block, whether it stands above or below them.

Experiments:
[1] = target: human recombinant IL-5 protein with a histidine tag at carboxyl terminal (human) (UniProt P05113); test: cell-based or functional assay
[2] = target: human recombinant IL-5 protein with a histidine tag at carboxyl terminal (human) (UniProt P05113); test: BLI (Octet 96), binding molecule on sensor, IL-5 antigen 200 nM and 2-fold dilutions
[3] = target: IL-5 protein (Novoprotein, Cat #CS 33) (human) (UniProt P05113); test: indirect ELISA on IL-5 protein, antibody titrated, OD450

B1: Fc fusion protein of anti-IL-5 single-domain antibody 1F4 (Fc fusion, not shown: a dimerising Fc or GST)
chain (part 1 of 2): QVQLVESGGGSAQAGGSLRLSCAASGNTLDLMAWFRQAPGKEREGVAGIYSSGTTYYADSVKGRFTVSRDNAKNTVYLQMNSLKPEDAAMYYCAAKVSWYGRWYQSETYEYWGQGTQVTVSS
chain (part 2 of 2): HHHHHH
EC50 for neutralizing IL-5-induced TF-1 cell proliferation [1]: 0.1

B2: Fc fusion protein of anti-IL-5 single-domain antibody 3G12 (Fc fusion, not shown: a dimerising Fc or GST)
chain (part 1 of 2): QVQLVESGGGSVQAGGSLRLSCVASGLTLNDVSMAWFRQAPGKEREEVAGIDIDGLISYADSVKGRFTISKDNAQNTLYLQMNSLKPEDTAMYSCAAVRLYFSSSRNQYKYEGQGTQVTVSS
chain (part 2 of 2): HHHHHH
EC50 for neutralizing IL-5-induced TF-1 cell proliferation [1]: 2.09

B3: Fc fusion protein of anti-IL-5 single-domain antibody 4C3 (Fc fusion, not shown: a dimerising Fc or GST)
chain (part 1 of 2): B2 chain (part 1 of 2) with S62P, L78M
chain (part 2 of 2): HHHHHH
EC50 for neutralizing IL-5-induced TF-1 cell proliferation [1]: 4.4

B7: Fc fusion protein of anti-IL-5 single-domain antibody 1B8 (Fc fusion, not shown: a dimerising Fc or GST)
chain (part 1 of 2): QVQLVESGGGSVQAGGSLRLSCAASGITASTSCMGWFRQSPGKEREGSLATIYDGSTSYADSVKGQFTISVDNAKNILYLQMNNLKPEDTAMYYCAAAKYCMFWSHPSYWGQGTQVTVSS
chain (part 2 of 2): HHHHHH
EC50 for neutralizing IL-5-induced TF-1 cell proliferation [1]: 0.175

B8: Fc fusion protein of anti-IL-5 single-domain antibody 2F7 (Fc fusion, not shown: a dimerising Fc or GST)
chain (part 1 of 2): B7 chain (part 1 of 2) with Q66R, E88A
chain (part 2 of 2): HHHHHH
EC50 for neutralizing IL-5-induced TF-1 cell proliferation [1]: 0.15

B10: Fc fusion protein of anti-IL-5 single-domain antibody 2G6 (Fc fusion, not shown: a dimerising Fc or GST)
chain (part 1 of 2): B7 chain (part 1 of 2) with A29S, S56N, T57I, Q66R, H106D
chain (part 2 of 2): HHHHHH
EC50 for neutralizing IL-5-induced TF-1 cell proliferation [1]: 0.188

B14: Fc fusion protein of anti-IL-5 single-domain antibody 4B12 (Fc fusion, not shown: a dimerising Fc or GST)
chain (part 1 of 2): QVQLVESGGGSVQPGGSLRLSCAASGNTFSFSTYCMGWFRQSPGKEREGSLATIYDGSTAYAGSVKGRFTVSVDNAKNILYLQMNNLKPEDTAMYYCASAKYCMFWSDPSYWGQGTQVTVSS
chain (part 2 of 2): HHHHHH
EC50 for neutralizing IL-5-induced TF-1 cell proliferation [1]: 0.196

B15: Fc fusion protein of anti-IL-5 single-domain antibody 4D5 (Fc fusion, not shown: a dimerising Fc or GST)
chain (part 1 of 2): B14 chain (part 1 of 2) with P14A, F31T, V71I, S99A
chain (part 2 of 2): HHHHHH
EC50 for neutralizing IL-5-induced TF-1 cell proliferation [1]: 0.427

Second part, the binder after the results:

Kd [2]: 0.99 nM | koff [2]: 8.22e-05 s⁻¹ | kon [2]: 82600 M⁻¹ s⁻¹ | EC50 for neutralizing IL-5-induced TF-1 cell proliferation [1]: 0.234
B4: Tab1 (control antibody 1), mepolizumab (antibody, INN chains, looked up, V domains shown)
VH: QVTLRESGPALVKPTQTLTLTCTVSGFSLTSYSVHWVRQPPGKGLEWLGVIWASGGTDYNSALMSRLSISKDTSRNQVVLTMTNMDPVDTATYYCARDPPSSLLRLDYWGRGTPVTVSS
VL: DIVMTQSPDSLAVSLGERATINCKSSQSLLNSGNQKNYLAWYQQKPGQPPKLLIYGASTRESGVPDRFSGSGSGTDFTLTISSLQAEDVAVYYCQNVHSFPFTFGGGTKLEIK

EC50 for neutralizing IL-5-induced TF-1 cell proliferation [1]: 0.176
B5: Fc fusion protein of anti-IL-5 single-domain antibody 4G8 (Fc fusion, not shown: a dimerising Fc or GST)
chain (part 1 of 2): B7 chain (part 1 of 2) with A29S, S56A, T57I, Q66R, H106D
chain (part 2 of 2): HHHHHH

EC50 for neutralizing IL-5-induced TF-1 cell proliferation [1]: 0.219
B6: humanized Fc-fused single-domain antibody 1B3-V3 (Fc fusion, not shown: a dimerising Fc or GST)
chain (part 1 of 2): B7 chain (part 1 of 2) with G55A, Q66R, K99R
chain (part 2 of 2): HHHHHH

EC50 for neutralizing IL-5-induced TF-1 cell proliferation [1]: 0.274
B9: humanized Fc-fused single-domain antibody 1B3-V5 (Fc fusion, not shown: a dimerising Fc or GST)
chain (part 1 of 2): B7 chain (part 1 of 2) with Q66R, V71R, A74S, K86R, P87A, M92V, K99R
chain (part 2 of 2): HHHHHH

EC50 for neutralizing IL-5-induced TF-1 cell proliferation [1]: 0.189
B11: Fc fusion protein of anti-IL-5 single-domain antibody 4H2 (Fc fusion, not shown: a dimerising Fc or GST)
chain (part 1 of 2): B7 chain (part 1 of 2) with G8E, A24V, A29S, S32A, T57I, Q66R, H106D
chain (part 2 of 2): HHHHHH

EC50 for neutralizing IL-5-induced TF-1 cell proliferation [1]: 0.237
B12: humanized Fc-fused single-domain antibody 1B3-V4 (Fc fusion, not shown: a dimerising Fc or GST)
chain (part 1 of 2): B7 chain (part 1 of 2) with G55A, Q66R, V71R, K86R, P87A, M92V, K99R
chain (part 2 of 2): HHHHHH

EC50 for neutralizing IL-5-induced TF-1 cell proliferation [1]: 2.82
B13: humanized Fc-fused single-domain antibody 1B3-V1 (Fc fusion, not shown: a dimerising Fc or GST)
chain (part 1 of 2): QVQLVESGGGLVQPGGSLRLSCAASGITASTSCMGWFRQAPGKGLEAVAATIYDGSTYYADSVKGRFTISRDNSKNTLYLQMNSLRAEDTAVYYCAAARYCMFWSHPSYWGQGTLVTVSS
chain (part 2 of 2): HHHHHH

EC50 (read off the curve) [3]: 0.8 nM | EC50 for neutralizing IL-5-induced TF-1 cell proliferation [1]: 0.0664
B16: Tab2 (control antibody 2), reslizumab (antibody, INN chains, looked up, V domains shown)
VH: EVQLVESGGGLVQPGGSLRLSCAVSGLSLTSNSVNWIRQAPGKGLEWVGLIWSNGDTDYNSAIKSRFTISRDTSKSTVYLQMNSLRAEDTAVYYCAREYYGYFDYWGQGTLVTVSS
VL: DIQMTQSPSSLSASVGDRVTITCLASEGISSYLAWYQQKPGKAPKLLIYGANSLQTGVPSRFSGSGSATDYTLTISSLQPEDFATYYCQQSYKFPNTFGQGTKVEVK
